Data on 5 molecules can be found in paper PMC5589196 (Cell, 2016).

B3: Tfg3 (natural protein, S. cerevisiae, UniProt P35189 1-244, looked up)
chain: MVATVKRTIRIKTQQHILPEVPPVENFPVRQWSIEIVLLDDEGKEIPATIFDKVIYHLHPTFANPNRTFTDPPFRIEEQGWGGFPLDISVFLLEKAGERKIPHDLNFLQESYEVEHVIQIPLNKPLLTEELAKSGSTEETTANTGTIGKRRTTTNTTAEPKAKRAKTGSASTVKGSVDLEKLAFGLTKLNEDDLVGVVQMVTDNKTPEMNVTNNVEEGEFIIDLYSLPEGLLKSLWDYVKKNTE

One assay has as its target T1, Rad3 (S. cerevisiae, UniProt P06839 1-778).
T1 sequence (looked up): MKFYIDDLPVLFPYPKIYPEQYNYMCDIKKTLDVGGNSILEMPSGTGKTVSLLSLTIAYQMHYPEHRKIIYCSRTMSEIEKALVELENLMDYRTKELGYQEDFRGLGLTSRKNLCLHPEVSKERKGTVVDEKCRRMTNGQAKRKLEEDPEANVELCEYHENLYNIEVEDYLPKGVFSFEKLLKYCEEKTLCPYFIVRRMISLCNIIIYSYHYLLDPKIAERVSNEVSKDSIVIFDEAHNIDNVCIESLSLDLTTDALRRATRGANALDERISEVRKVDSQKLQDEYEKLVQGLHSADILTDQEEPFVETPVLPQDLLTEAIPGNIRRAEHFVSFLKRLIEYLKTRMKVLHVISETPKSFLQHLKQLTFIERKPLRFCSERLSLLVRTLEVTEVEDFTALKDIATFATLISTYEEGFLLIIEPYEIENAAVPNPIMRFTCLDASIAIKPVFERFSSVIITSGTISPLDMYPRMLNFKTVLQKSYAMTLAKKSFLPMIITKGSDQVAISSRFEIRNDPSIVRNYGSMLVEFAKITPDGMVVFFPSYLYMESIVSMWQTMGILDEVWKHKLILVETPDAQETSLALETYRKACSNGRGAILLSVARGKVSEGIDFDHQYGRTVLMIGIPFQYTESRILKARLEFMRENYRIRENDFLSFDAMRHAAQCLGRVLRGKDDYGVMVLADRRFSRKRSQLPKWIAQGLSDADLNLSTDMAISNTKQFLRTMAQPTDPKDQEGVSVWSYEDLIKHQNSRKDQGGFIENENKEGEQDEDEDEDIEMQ
Kind of assay: cross-linking.

For the assay “Tfg3”, the target named is B3. The experiment in a line: cross-linking + cryo-EM structure.
In another assay the target is T2, Tfg1 (S. cerevisiae, UniProt P41895 1-735).
T2 sequence (looked up): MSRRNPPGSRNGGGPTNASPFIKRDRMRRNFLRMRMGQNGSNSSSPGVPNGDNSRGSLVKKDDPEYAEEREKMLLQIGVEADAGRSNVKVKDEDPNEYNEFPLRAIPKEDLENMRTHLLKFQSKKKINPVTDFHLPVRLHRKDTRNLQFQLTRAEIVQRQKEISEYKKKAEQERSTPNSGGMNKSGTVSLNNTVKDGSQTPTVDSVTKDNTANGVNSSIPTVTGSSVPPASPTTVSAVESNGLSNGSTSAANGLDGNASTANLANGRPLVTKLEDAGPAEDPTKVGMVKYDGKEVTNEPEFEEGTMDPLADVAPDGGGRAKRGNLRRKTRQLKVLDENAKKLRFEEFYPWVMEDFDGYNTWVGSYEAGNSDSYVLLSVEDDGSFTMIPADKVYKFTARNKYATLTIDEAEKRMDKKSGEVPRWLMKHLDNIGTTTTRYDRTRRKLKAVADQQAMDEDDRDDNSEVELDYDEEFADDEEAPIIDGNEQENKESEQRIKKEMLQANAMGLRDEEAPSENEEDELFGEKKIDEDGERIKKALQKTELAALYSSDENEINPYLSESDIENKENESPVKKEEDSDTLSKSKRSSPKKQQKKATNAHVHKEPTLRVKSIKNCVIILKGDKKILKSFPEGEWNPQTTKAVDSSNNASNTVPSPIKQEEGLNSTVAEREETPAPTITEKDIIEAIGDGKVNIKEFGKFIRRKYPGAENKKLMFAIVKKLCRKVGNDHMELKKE
The experiment in a line: cross-linking + cryo-EM structure.

A further assay addresses T3, TFIIF (S. cerevisiae, UniProt P41895 1-735; P41896 1-400; P35189 1-244).
T3 sequence (looked up) 1: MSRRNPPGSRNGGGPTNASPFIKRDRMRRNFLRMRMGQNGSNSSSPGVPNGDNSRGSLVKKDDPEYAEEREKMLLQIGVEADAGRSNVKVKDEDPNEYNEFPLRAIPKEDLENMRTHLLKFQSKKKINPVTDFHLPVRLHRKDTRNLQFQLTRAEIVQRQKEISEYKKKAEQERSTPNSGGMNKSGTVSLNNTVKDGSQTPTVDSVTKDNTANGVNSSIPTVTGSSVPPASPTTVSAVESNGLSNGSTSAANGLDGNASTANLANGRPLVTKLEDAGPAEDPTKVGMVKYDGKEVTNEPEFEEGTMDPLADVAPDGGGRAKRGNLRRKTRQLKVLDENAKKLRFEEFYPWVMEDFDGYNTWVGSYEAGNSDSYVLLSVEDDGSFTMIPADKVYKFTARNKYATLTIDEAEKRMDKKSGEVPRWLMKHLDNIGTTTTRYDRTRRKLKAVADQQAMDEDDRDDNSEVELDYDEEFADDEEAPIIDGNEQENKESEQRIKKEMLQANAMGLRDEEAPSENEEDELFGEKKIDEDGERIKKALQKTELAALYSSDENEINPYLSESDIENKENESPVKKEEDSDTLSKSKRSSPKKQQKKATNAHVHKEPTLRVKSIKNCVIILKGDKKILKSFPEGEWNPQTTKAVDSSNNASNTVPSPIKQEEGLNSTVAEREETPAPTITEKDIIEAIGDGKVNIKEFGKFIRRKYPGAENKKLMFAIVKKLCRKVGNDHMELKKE
T3 sequence (looked up) 2: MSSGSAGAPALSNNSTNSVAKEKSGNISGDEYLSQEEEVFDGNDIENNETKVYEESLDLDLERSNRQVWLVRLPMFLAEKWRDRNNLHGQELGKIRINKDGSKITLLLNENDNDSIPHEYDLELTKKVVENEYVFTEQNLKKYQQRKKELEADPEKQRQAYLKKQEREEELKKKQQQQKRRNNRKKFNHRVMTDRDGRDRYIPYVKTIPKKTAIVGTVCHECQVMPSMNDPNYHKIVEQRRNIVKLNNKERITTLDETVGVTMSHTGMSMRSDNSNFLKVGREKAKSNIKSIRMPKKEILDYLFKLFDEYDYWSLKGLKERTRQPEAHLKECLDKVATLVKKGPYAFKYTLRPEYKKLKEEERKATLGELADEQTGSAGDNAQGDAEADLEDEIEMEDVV
T3 sequence (looked up) 3: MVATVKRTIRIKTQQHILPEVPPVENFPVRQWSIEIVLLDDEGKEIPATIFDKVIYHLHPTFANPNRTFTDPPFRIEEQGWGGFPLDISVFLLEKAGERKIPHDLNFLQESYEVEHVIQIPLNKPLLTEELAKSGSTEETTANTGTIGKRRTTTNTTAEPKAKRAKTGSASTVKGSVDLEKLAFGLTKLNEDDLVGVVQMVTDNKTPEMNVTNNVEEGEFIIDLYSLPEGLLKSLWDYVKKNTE
Kind of assay: cross-linking.

In another assay the target is T4, Med5 (S. cerevisiae, UniProt P53114 1-1132).
T4 sequence (looked up): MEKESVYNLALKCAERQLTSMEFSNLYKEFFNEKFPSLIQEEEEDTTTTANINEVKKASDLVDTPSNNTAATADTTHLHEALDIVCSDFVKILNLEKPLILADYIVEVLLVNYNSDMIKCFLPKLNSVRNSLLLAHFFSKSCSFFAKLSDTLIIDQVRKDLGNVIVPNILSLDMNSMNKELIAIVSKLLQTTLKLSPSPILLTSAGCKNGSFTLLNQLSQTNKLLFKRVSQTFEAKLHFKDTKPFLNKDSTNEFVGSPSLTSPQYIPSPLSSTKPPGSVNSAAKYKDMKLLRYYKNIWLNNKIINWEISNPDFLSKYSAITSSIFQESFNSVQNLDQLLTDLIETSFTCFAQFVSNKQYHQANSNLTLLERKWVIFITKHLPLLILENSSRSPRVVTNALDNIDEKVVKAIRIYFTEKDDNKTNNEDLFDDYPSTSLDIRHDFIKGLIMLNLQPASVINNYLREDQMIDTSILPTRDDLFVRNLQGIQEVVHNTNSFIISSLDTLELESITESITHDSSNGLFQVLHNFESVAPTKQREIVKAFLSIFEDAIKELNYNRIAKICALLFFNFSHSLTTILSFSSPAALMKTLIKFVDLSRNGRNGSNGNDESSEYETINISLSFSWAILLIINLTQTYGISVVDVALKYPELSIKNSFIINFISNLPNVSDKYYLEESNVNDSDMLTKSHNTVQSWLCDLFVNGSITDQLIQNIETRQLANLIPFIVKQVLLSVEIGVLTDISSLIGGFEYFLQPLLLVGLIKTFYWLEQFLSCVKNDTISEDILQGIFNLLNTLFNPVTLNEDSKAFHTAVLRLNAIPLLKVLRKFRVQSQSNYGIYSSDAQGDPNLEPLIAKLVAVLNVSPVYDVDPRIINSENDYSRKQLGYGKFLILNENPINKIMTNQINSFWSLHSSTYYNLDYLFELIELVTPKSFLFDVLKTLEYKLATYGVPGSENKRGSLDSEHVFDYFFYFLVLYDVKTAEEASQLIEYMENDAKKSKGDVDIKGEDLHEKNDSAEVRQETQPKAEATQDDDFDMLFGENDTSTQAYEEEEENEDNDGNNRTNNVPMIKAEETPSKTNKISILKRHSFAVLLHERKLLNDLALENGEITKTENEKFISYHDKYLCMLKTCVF
Kind of assay: cross-linking.

B1: Tfb3 (natural protein, S. cerevisiae, UniProt Q03290 1-321, looked up)
chain: MLMDEYEENKDMCPICKTDRYLSPDVKFLVNPECYHRICESCVDRIFSLGPAQCPYKGCDKILRKNKFKTQIFDDVEVEKEVDIRKRVFNVFNKTIDDFNGDLVEYNKYLEEVEDIIYKLDHGIDVAKTEEKLRTYEELNKQLIMNNLERSRTEIESFEQRQKFEKEMKLKKRLLERQIEEEERMNKEWTKKEIVNRLSTTTQDINETIEGVKNTVKLKKSSARRKLEELNRVLKNNPYFNSNVNVQNSRLKDAVPFTPFNGDREAHPRFTLKGSVYNDPFIKDLEHRKEFIASGFNTNYAYERVLTEAFMGLGCVISEEL
With B1, the binding result in the assay with Rad3 is “binds”.

B2: Rpb9 (natural protein, S. cerevisiae, UniProt P27999 1-122, looked up)
chain: MTTFRFCRDCNNMLYPREDKENNRLLFECRTCSYVEEAGSPLVYRHELITNIGETAGVVQDIGSDPTLPRSDRECPKCHSRENVFFQSQQRRKDTSMVLFFVCLSCSHIFTSDQKNKRTQFS
Turning to B2, the binding result in the assay with Tfg3 is reported as “binds”.

As for B3, in the assay with Tfg1, the binding result was “binds”.

B4: TFIIE (complex, S. cerevisiae)
chain 1: MDRPIDDIVKNLLKFVVRGFYGGSFVLVLDAILFHSVLAEDDLKQLLSINKTELGPLIARLRSDRLISIHKQREYPPNSKSVERVYYYVKYPHAIDAIKWKVHQVVQRLKDDLDKNSEPNGYMCPICLTKYTQLEAVQLLNFDRTEFLCSLCDEPLVEDDSGKKNKEKQDKLNRLMDQIQPIIDSLKKIDDSRIEENTFEIALARLIPPQNQSHAAYTYNPKKGSTMFRPGDSAPLPNLMGTALGNDSSRRAGANSQATLHINITTASDEVAQRELQERQAEEKRKQNAVPEWHKQSTIGKTALGRLDNEEEFDPVVTASAMDSINPDNEPAQETSYQNNRTLTEQEMEERENEKTLNDYYAALAKKQAKLNKEEEEEEEEEEDEEEEEEEEMEDVMDDNDETARENALEDEFEDVTDTAGTAKTESNTSNDVKQESINDKTEDAVNATATASGPSANAKPNDGDDDDDDDDDEMDIEFEDV
chain 2: MSKNRDPLLANLNAFKSKVKSAPVIAPAKVGQKKTNDTVITIDGNTRKRTASERAQENTLNSAKNPVLVDIKKEAGSNSSNAISLDDDDDDEDFGSSPSKKVRPGSIAAAALQANQTDISKSHDSSKLLWATEYIQKKGKPVLVNELLDYLSMKKDDKVIELLKKLDRIEFDPKKGTFKYLSTYDVHSPSELLKLLRSQVTFKGISCKDLKDGWPQCDETINQLEEDSKILVLRTKKDKTPRYVWYNSGGNLKCIDEEFVKMWENVQLPQFAELPRKLQDLGLKPASVDPATIKRQTKRVEVKKKRQRKGKITNTHMTGILKDYSHRV
For the molecule B4, the binding result with TFIIF is on record as “binds”.

B5: Med1 (natural protein, S. cerevisiae, UniProt Q12321 1-566, looked up)
chain: MVEGDSYVETLDSMIELFKDYKPGSITLENITRLCQTLGLESFTEELSNELSRLSTASKIIVIDVDYNKKQDRIQDVKLVLASNFDNFDYFNQRDGEHEKSNILLNSLTKYPDLKAFHNNLKFLYLLDAYSHIESDSTSHNNGSSDKSLDSSNASFNNQGKLDLFKYFTELSHYIRQCFQDNCCDFKVRTNLNDKFGIYILTQGINGKEVPLAKIYLEENKSDSQYRFYEYIYSQETKSWINESAENFSNGISLVMEIVANAKESNYTDLIWFPEDFISPELIIDKVTCSSNSSSSPPIIDLFSNNNYNSRIQLMNDFTTKLINIKKFDISNDNLDLISEILKWVQWSRIVLQNVFKLVSTPSSNSNSSELEPDYQAPFSTSTKDKNSSTSNTEPIPRSNRHGSVVEASRRRRSSTNKSKRPSITEAMMLKEEGLQQFNLHEILSEPAIEEENGDSIKEHSTTMDGANDLGFTASVSNQENAGTDIVMEDHGVLQGTSQNYGTATADDADIEMKDVSSKPSKPESSVLQLIVSEDHIILDTISECNLYDDVKCWSKFIEKFQDIVS
Regarding B5, the binding result with Med5 is recorded as “binds”.
